Earlier results as cited in article PMC3883350.
Read-outs that look alike come from different tables or passages of the source. Blank lines part the entries; values can stand above or below the substance they belong to.

Tests used:
VIP (Homo sapiens) [1] = target: VIP (Homo sapiens) (UniProt P01282)
PACAP (Homo sapiens) [2] = target: PACAP (Homo sapiens) (UniProt P18509)
VIP (Homo sapiens) [3] = target: VIP (Homo sapiens) (UniProt P01282); remark: listed apart in the source
PACAP (Homo sapiens) [4] = target: PACAP (Homo sapiens) (UniProt P18509); remark: listed apart in the source
PACAP (Homo sapiens) [5] = target: PACAP (Homo sapiens) (UniProt P18509); remark: listed apart in the source
VIP (Homo sapiens) [6] = target: VIP (Homo sapiens) (UniProt P01282); remark: listed apart in the source

Sequence of UniProt P01282 (P01282 125-152): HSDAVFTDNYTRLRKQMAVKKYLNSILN
Sequence of UniProt P18509 (P18509 82-129): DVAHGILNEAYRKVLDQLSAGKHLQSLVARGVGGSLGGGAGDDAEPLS

Kd (VIP (Homo sapiens) [1]): > 500 nM
Kd (PACAP (Homo sapiens) [2]): 0.5 nM
Substance: PAC1 (from UniProt P41586)

Kd (VIP (Homo sapiens) [3]): 1 nM
Kd (PACAP (Homo sapiens) [4]): 1 nM
Substance: VPAC1 (from UniProt P32241)

Kd (PACAP (Homo sapiens) [5]): 1 nM
Kd (VIP (Homo sapiens) [6]): 1 nM
Substance: VPAC2 (from UniProt P41587)
